In patent US6670161B1, “Compositions and methods for template-dependent enzymatic synthesis of nucleic acid” (The Board of Trustees of the Leland Stanford Jr. University, priority 1991, dated 2003):
Where two headings read alike, the source gives them in different places.

Experiments:
[1] = system: optimally gapped salmon sperm DNA, dNTP's; assay: Kinetic parameters of DNA polymerase α on gapped DNA (Lineweaver-Burk); format: biochemical; details: for Km: gapped salmon sperm DNA
From the text: Characterization of Affinity. The four subunit-DNA polymerase α/primase complex was purified from human KB cells as described T. Wang et al., J. Biol. Chem. 259:1854 (1984) and used for comparison to the single polypeptide recombinant polymerase α for their respective affinities for dNTP, primer-terminus, and gapped DNA. Prior to the comparison, both the immunopurified recombinant single subunit-polymerase α and the four subunit-polymerase α/primase complex were stored in buffer containing 30% sucrose, 20% ethylene glycol, 50 mM Tris HCL, pH 8.6, 1 mM βME, 1 mM EDTA at −80° C. or stored on packed ice at 4° C.
(§1) The standard assay for DNA polymerase α with gapped DNA was performed according to P. A. Fisher and D. Korn, J. Biol. Chem 252:6528 1977). Reactions were performed using optimally gapped salmon sperm DNA in 20 mM Tris.HCl, pH 8.0, 2 mM β-mercaptoethanol (“βME”), 200 μg/ml BSA, 10 mM MgCl2, 50 μM dNTP's with [α-^32P]dATP as the label. One unit of DNA polymerase is defined as the amount of polymerase that incorporates 1 nmole of labeled dNTP into acid-insoluble DNA at 37° C. in 60 min. […] All Kinetic parameters were calculated from Lineweaver-Burk plots by the method of least squares. Km was calculated of the basis of 3′-OH primer termini.
The rate of catalysis of these two forms was also measured. The Kcat values determined for the two forms of polymerase α are of a similar order of magnitude.

[2] = system: lacZ α-complementing gene in M13mp2 DNA; assay: DNA synthetic fidelity, minus-one frame-shift reversion assay; format: biochemical
Description: (§2) DNA Synthetic Fidelity. The fidelity of the single catalytic subunit and the four subunit polymerase α/primase was measured and compared. Three methods were used to measure a single round of gap filling synthesis within the lacZ α-complementing gene in M13mp2 DNA. See T. A. Kunkel et al. Mol. Cell. Biol. 9:4447 (1989). In all three assays, a gapped, double-stranded M13mp2 DNA is constructed which contains a single-stranded gap as the mutation target. The three assays are: (A) forward mutation assay, (B) opal codon reversion assay, and (C) assay for −1 base frame-shift.
(§3) The DNA synthetic mutational frequency and the error rate of the two forms of DNA polymerase α measured by these three methods are summarized in Table III. […] The DNA synthetic fidelity values obtained are also in agreement with the values previously determined for the four subunit polymerase α.

[3] = system: matched 24 mer or mismatched 29 mer annealed to M13mp18 single stranded DNA; assay: Proofreading exonuclease assay on primed M13mp18; format: biochemical; details: up to 30 minutes at 37° C.
Description: Proofreading exonuclease activity of the recombinant single subunit poymerase α was assayed with a singly primed M13mp18 template (SEQ ID NO:5), primed either with a matched 24 mer (SEQ ID NO:4) (FIG. 8B) or a mismatched 29 mer (SEQ ID NO:2) (FIG. 8A), each ^32P-labeled at the 5′ end by T4 polynucleotide kinase. The mismatched 29 mer (SEQ ID NO:2) contains 9 mismatched T's on the 3′ terminus. Correct proofreading of this 29 mer (SEQ ID NO:2) annealed to M13mp18 (SEQ ID NO:3) would produce a 20 mer in the absence of deoxynucleotide triphosphates (dNTPs).
To perform the assay, two oligonucleotides, the universal primer, a 24 mer (matched primer) and RD29 mer (mismatched primer), were 5′-end labeled with ^32P-ATP and annealed to M13mp18 single stranded template. 0.1 pmole of this primed M13 was incubated in 20 mM Tris.HCl, pH 7.5, 10 mM MgCl2, 20 mM KCl and 2 mM dithiothreitol at 37° C. in the presence of polymerase in a final volume of 12 μl. Aliquots of 3 μl each were removed at 0, 2.5, 10 and 30 minutes into an equal volume of deionized formamide containing 1 mM EDTA, 0.1% xylene cyanol and 0.1% bromophenol blue and placed on ice. After heating at 95° C. for 5 minutes, one-half of the sample was loaded onto an 18% polyacrylamide, 7 M urea, Tris-borate-EDTA gel. […]

[4] = Thermostability: preincubation at 37° C. before assaying polymerase activity; format: physicochemical
Description: Thermosensitivity. The thermostability of the two forms of polymerase α was also compared; this was done by preincubation at 37° C. for various times before assaying polymerase activity. […] (data not shown). These decreases in polymerase activity was not due to proteolysis of the polymerase protein.

oligo(dT)12: poly(dA)290 = assay: Km for primer terminus; format: biochemical; details: oligo(dT)12: poly(dA)290, 2 mM MgCl2, 50 μM dTTP
Description: as §1

[5] = system: lacZ α-complementing gene in M13mp2 DNA; assay: DNA synthetic fidelity, forward mutation assay; format: biochemical; details: light blue and colorless plaques
Description: as §2, §3

[6] = system: lacZ α-complementing gene in M13mp2 DNA; assay: DNA synthetic fidelity, base-substitution (opal codon) reversion assay; format: biochemical
Description: as §2, §3

B1: Single subunit recombinant Pol α: recombinant human DNA polymerase α catalytic polypeptide (180 kDa) immunopurified from AcHDPα infected Sf9 cells (protein)
chain: MAPVHGDDSLSDSGSFVSSRARREKKSKKGRQEALERLKKAKAGEKYKYEVEDFTGVYEEVDEEQYSKLVQARQDDDWIVDDDGIGYVEDGREIFDDDLEDDALDADEKGKDGKARNKDKRNVKKLAVTKPNNIKSMFIACAGKKTADKAVDLSKDGLLGDILQDLNTETPQITPPPVMILKKKRSIGASPNPFSVHTATAVPSGKIASPVSRKEPPLTPVPLKRAEFAGDDVQVESTEEEQESGAMEFEDGDFDEPMEVEEVDLEPMAAKAWDKESEPAEEVKQEADSGKGTVSYLGSFLPDVSCWDIDQEGDSSFSVQEVQVDSSHLPLVKGADEEQVFHFYWLDAYEDQYNQPGVVFLFGKVWIESAETHVSCCVMVKNIERTLYFLPREMKIDLNTGKETGTPISMKDVYEEFDEKIATKYKIMKFKSKPVEKNYAFEIPDVPEKSEYLEVKYSAEMPQLPQDLKGETFSHVFGTNTSSLELFLMNRKIKGPCWLEVKSPQLLNQPVSWCKVEAMALKPDLVNVIKDVSPPPLVVMAFSMKTMQNAKNHQNEIIAMAALVHHSFALDKAAPKPPFQSHFCVVSKPKDCIFPYAFKEVIEKKNVKVEVAATERTLLGFFLAKVHKIDPDIIVGHNIYGFELEVLLQRINVCKAPHWSKIGRLKRSNMPKLGGRSGFGERNATCGRMICDVEISAKELIRCKSYHLSELVQQILKTERVVIPMENIQNMYSESSQLLYLLEHTWKDAKFILQIMCELNVLPLALQITNIAGNIMSRTLMGGRSERNEFLLLHAFYENNYIVPDKQIFRKPQQKLGDEDEEIDGDTNKYKKGRKKAAYAGGLVLDPKVGFYDKFILLLDFNSLYPSIIQEFNICFTTVQRVASEAQKVTEDGEQEQIPELPDPSLEMGILPREIRKLVERRKQVKQLMKQQDLNPDLILQYDIRQKALKLTANSMYGCLGFSYSRFYAKPLAALVTYKGREILMHTKEMVQKMNLEVIYGDTDSIMINTNSTNLEEVFKLGNKVKSEVNKLYKLLEIDIDGVFKSLLLLKKKKYAALVVEPTSDGNYVTKQELKGLDIVRRDWCDLAKDTGNFVIGQILSDQSRDTIVENIQKRLIEIGENVLNGSVPVSQFEINKALTKDPQDYPDKKSLPHVHVALWINSQGGRKVKAGDTVSYVICQDGSNLTASQRAYAPEQLQKQDNLTIDTQYYLAQQIHPVVARICEPIDGIDAVLIATWLGLDPTQFRVHHYHKDEENDALLGGPAQLTDEEKYRDCERFKCPCPTCGTENIYDNVFDGSGTDMEPSLYRCSNIDCKASPLTFTVQLSNKLIMDIRRFIKKYYDGWLICEEPTCRNRTRHLPLQFSRTGPLCPACMKATLQPEYSDKSLYTQLCFYRYIFDAECALEKLTTDHEKDKLKKQFFTPKVLQDYRKLKNTAEQFLSRSGYSEVNLSKLFAGCAVKS
Work on B1 yielded a Kcat [1] of 1.6 s⁻¹, a Km ([1]; 10 mM MgCl2, pH 8.0, read-out: Km (dNTP)) of 1.2 µM and a Km ([1]; read-out: Km (DNA in nucleotide)) of 190 µM. For the same molecule, the Error rate [2] was 1/1800, the Mutant frequency ([2]; blue plaques) was 170 ×10^−5 and the “3′-5′ exonuclease activity on matched and mismatched primer-template” value [3] was “no apparent 3′-5′ exonuclease was detected”. For the same molecule, the “Thermostability, % activity after 30 min at 37° C.” value [4] was 68%, the Km (oligo(dT)12: poly(dA)290) was 0.4 µM and the Mutant frequency [5] was 300 ×10^−4. For the same molecule, the Error rate [6] was 1/4900 and the Mutant frequency ([6]; blue plaques) was 370 ×10^−6.
